Results on 25 molecules are retold here after patent US20150344570A1 (published 2015).

T1: FcγRIIa R (FcγRIIa, allotype with Arg at position 131), extracellular domain with C-terminal His tag (human, UniProt P12318 34-217)
T1 construct: extracellular domain; also called FcγRIIa R type; 2aR
T1 sequence (looked up): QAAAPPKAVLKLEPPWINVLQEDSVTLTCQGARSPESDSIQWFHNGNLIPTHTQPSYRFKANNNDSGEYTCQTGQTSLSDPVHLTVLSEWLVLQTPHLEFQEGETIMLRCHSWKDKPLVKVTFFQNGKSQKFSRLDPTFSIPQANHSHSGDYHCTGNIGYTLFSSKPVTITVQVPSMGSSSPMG

B1: GpH7-A5/GpH7-B3 variant T335_19Q/GpL16-k0 (antibody, human IgG1, kappa)
heavy 1: not shown
heavy 2: not shown
light: DIVMTQSPLSLPVTPGEPASISCQASESLVHSNRNTYLHWYLQKPGQSPQLLIYKVSNRFSGVPDRFSGSGSGTDFTLKISRVEAEDVGVYYCSQNTHVPPTFGQGTKVEIERTVAAPSVFIFPPSDEQLKSGTASVVCLLNNFYPREAKVQWKVDNALQSGNSQESVTEQDSKDSTYSLSSTLTLSKADYEKHKVYACEVTHQGLSSPVTKSFNRGEC
notes: also called He Ab
B2: GpH7-A5/GpH7-B3 variant Y296_19Q/GpL16-k0 (antibody, human IgG1, kappa)
heavy 1: not shown
heavy 2: not shown
light: B1 light
notes: also called He Ab
B3: GpH7-A5/GpH7-B3 variant T335_05P/GpL16-k0 (antibody, human IgG1, kappa)
heavy 1: not shown
heavy 2: not shown
light: B1 light
notes: also called He Ab
B4: GpH7-B3 variant K334_01G/GpL16-k0 (antibody, human IgG1, kappa)
heavy: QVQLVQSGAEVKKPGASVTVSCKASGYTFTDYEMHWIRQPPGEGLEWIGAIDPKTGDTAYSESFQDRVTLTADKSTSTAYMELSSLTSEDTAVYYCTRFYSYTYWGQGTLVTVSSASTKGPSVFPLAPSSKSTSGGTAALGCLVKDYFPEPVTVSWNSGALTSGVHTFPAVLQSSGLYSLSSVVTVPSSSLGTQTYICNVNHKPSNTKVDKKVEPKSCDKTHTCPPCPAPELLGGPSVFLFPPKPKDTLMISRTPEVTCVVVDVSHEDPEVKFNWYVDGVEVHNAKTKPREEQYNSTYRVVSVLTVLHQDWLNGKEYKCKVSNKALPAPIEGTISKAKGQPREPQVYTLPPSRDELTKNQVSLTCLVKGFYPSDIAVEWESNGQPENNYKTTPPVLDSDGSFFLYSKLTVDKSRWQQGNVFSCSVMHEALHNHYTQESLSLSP
light: B1 light
notes: also called Ho Ab K334_01G
B5: GpH7-B3 variant I332_10E/GpL16-k0 (antibody, human IgG1, kappa)
heavy: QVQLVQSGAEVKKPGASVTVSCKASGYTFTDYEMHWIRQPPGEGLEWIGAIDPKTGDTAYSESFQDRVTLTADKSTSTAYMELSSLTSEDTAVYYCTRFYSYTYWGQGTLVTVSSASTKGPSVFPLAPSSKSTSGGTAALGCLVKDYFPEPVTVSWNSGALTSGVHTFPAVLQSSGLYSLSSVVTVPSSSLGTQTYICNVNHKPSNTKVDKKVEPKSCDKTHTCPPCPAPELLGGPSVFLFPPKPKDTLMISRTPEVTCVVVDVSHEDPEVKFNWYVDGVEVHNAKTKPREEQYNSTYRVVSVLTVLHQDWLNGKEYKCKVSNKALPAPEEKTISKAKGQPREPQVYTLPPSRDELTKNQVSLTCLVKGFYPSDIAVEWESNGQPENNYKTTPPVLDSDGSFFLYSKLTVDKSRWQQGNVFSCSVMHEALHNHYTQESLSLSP
light: B1 light
notes: also called Ho Ab I332_10E
B6: GpH7-B3 variant I332_14T/GpL16-k0 (antibody, human IgG1, kappa)
heavy: not shown
light: B1 light
notes: also called Ho Ab I332_14T
B7: GpH7-B3 variant I336_03V/GpL16-k0 (antibody, human IgG1, kappa)
heavy: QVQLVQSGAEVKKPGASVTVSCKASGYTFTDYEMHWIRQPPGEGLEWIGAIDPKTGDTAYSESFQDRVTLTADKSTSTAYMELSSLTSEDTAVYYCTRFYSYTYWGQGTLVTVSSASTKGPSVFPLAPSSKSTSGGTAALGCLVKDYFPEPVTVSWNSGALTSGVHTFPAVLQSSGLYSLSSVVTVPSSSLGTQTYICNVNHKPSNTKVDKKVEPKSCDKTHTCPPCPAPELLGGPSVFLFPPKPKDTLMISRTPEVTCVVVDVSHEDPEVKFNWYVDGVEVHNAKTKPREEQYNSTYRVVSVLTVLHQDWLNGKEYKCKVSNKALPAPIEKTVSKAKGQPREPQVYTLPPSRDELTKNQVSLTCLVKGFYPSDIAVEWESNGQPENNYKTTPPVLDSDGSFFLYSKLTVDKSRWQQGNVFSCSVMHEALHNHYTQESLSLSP
light: B1 light
notes: also called Ho Ab I336_03V
B8: GpH7-B3 variant E333_16H/GpL16-k0 (antibody, human IgG1, kappa)
heavy: not shown
light: B1 light
notes: also called Ho Ab E333_16H
B9: GpH7-B3 variant I336_06M/GpL16-k0 (antibody, human IgG1, kappa)
heavy: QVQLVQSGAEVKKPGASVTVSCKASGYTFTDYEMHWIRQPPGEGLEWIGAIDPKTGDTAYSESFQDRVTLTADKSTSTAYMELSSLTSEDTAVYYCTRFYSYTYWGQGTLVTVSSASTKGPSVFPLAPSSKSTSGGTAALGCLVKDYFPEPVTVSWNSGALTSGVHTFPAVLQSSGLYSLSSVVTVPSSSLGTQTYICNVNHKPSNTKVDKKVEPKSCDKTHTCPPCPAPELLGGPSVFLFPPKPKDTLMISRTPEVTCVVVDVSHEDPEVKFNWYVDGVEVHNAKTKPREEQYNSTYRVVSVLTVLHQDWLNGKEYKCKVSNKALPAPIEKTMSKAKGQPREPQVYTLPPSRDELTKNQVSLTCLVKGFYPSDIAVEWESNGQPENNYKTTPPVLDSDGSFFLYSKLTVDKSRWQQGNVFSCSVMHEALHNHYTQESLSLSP
light: B1 light
notes: also called Ho Ab I336_06M
B10: GpH7-B3 variant I336_02A/GpL16-k0 (antibody, human IgG1, kappa)
heavy: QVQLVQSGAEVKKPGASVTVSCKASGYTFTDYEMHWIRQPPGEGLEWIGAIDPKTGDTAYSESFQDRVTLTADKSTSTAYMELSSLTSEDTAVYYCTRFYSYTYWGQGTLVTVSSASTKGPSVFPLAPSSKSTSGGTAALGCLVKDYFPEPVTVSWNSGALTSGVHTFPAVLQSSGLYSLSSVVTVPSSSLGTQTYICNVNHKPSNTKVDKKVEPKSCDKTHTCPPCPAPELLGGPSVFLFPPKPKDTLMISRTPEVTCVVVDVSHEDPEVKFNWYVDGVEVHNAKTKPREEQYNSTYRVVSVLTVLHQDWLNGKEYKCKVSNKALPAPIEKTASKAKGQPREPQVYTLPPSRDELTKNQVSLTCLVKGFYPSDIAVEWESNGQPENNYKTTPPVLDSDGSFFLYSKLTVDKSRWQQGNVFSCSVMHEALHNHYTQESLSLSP
light: B1 light
notes: also called Ho Ab I336_02A
B11: GpH7-B3 variant I332_01G/GpL16-k0 (antibody, human IgG1, kappa)
heavy: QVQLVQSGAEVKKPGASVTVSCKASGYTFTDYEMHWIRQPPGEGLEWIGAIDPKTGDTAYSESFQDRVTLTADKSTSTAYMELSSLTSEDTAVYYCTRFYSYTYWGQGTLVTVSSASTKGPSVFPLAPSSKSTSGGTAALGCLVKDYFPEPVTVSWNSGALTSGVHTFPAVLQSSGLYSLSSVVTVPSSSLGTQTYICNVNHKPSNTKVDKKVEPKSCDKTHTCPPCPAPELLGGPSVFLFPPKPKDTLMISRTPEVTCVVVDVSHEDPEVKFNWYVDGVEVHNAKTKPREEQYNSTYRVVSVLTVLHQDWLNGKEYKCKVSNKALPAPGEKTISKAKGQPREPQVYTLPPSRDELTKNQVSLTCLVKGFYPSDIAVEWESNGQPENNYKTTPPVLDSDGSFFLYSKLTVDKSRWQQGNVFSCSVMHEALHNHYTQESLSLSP
light: B1 light
notes: also called Ho Ab I332_01G
B12: GpH7-B3 variant I336_09D/GpL16-k0 (antibody, human IgG1, kappa)
heavy: not shown
light: B1 light
notes: also called Ho Ab I336_09D
B13: GpH7-B3 variant I332_19Q/GpL16-k0 (antibody, human IgG1, kappa)
heavy: not shown
light: B1 light
notes: also called Ho Ab I332_19Q
B14: GpH7-B3 variant A330_04F/GpL16-k0 (antibody, human IgG1, kappa)
heavy: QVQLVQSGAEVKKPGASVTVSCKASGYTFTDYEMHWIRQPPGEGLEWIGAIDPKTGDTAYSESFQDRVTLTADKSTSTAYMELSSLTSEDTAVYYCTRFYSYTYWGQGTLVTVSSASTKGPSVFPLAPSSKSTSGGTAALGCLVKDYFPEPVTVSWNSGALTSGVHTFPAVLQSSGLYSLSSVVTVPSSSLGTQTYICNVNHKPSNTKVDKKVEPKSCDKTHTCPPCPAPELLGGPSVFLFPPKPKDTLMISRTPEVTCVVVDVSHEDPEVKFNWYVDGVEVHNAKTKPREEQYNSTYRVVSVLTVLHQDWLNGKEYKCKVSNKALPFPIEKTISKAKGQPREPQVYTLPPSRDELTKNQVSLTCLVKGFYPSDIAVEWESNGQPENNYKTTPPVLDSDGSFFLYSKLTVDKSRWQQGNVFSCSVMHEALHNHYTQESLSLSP
light: B1 light
notes: also called Ho Ab A330_04F
B15: GpH7-B3 variant I336_13S/GpL16-k0 (antibody, human IgG1, kappa)
heavy: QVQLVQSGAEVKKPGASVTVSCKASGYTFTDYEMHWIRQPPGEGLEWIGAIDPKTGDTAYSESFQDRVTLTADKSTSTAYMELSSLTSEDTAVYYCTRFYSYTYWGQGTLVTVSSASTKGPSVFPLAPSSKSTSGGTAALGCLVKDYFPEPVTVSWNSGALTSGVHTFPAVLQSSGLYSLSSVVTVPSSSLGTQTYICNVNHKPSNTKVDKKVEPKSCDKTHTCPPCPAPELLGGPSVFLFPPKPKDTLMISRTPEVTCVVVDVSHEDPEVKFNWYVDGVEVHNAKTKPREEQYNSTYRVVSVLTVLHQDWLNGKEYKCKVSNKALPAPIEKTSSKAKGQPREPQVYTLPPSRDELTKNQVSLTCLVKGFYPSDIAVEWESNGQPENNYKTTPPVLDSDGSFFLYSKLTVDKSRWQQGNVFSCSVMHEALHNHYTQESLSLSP
light: B1 light
notes: also called Ho Ab I336_13S
B16: GpH7-B3 variant I332_02A/GpL16-k0 (antibody, human IgG1, kappa)
heavy: not shown
light: B1 light
notes: also called Ho Ab I332_02A
B17: GpH7-B3 variant I332_09D/GpL16-k0 (antibody, human IgG1, kappa)
heavy: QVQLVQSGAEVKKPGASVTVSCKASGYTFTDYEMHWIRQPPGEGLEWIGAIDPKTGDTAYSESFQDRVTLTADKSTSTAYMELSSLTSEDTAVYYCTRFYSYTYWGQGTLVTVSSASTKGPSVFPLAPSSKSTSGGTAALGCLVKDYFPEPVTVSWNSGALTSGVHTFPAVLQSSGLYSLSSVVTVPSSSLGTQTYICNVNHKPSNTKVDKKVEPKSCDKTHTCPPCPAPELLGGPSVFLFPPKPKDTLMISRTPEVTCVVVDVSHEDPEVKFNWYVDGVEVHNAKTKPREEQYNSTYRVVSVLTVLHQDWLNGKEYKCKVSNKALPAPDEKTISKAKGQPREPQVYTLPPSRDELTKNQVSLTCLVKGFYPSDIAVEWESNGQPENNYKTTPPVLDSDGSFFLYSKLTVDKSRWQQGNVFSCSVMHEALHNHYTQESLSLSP
light: B1 light
notes: also called Ho Ab I332_09D
B18: GpH7-B3 variant A330_08L/GpL16-k0 (antibody, human IgG1, kappa)
heavy: not shown
light: B1 light
notes: also called Ho Ab A330_08L
B19: GpH7-B3 variant I332_15Y/GpL16-k0 (antibody, human IgG1, kappa)
heavy: not shown
light: B1 light
notes: also called Ho Ab I332_15Y
B20: GpH7-B3 variant A330_20W/GpL16-k0 (antibody, human IgG1, kappa)
heavy: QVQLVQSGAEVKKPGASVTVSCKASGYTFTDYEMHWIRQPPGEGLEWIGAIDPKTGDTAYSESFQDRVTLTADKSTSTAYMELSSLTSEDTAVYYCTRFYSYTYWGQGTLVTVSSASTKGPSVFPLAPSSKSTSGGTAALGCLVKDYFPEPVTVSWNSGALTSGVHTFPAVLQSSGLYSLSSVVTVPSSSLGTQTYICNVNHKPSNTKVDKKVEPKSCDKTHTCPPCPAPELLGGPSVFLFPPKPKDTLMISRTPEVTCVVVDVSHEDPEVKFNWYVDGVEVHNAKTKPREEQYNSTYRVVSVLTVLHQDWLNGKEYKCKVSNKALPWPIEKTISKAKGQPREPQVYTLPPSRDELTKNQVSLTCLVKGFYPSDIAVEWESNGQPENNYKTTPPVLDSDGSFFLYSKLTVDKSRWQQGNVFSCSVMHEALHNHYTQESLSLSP
light: B1 light
notes: also called Ho Ab A330_20W
B21: GpH7-B3 variant I336_10E/GpL16-k0 (antibody, human IgG1, kappa)
heavy: not shown
light: B1 light
notes: also called Ho Ab I336_10E
B22: GpH7-B3 variant H268_13S/GpL16-k0 (antibody, human IgG1, kappa)
heavy: not shown
light: B1 light
notes: also called Ho Ab H268_13S
B23: GpH7-B3 variant H268_10E/GpL16-k0 (antibody, human IgG1, kappa)
heavy: not shown
light: B1 light
notes: also called Ho Ab H268_10E
B24: GpH7-B3 variant H268_09D/GpL16-k0 (antibody, human IgG1, kappa)
heavy: not shown
light: B1 light
notes: also called Ho Ab H268_09D
B25: GpH7-B3 variant I332_13S/GpL16-k0 (antibody, human IgG1, kappa)
heavy: not shown
light: B1 light
notes: also called Ho Ab I332_13S

T2 sequence (P08637 17-208): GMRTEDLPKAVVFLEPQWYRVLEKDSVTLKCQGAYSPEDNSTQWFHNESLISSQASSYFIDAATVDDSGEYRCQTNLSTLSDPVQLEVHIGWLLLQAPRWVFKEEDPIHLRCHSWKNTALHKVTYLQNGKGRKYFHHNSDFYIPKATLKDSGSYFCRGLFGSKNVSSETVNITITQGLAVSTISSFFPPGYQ

The target in one assay is T1, FcγRIIa R (FcγRIIa, allotype with Arg …). Nature of the assay: SPR (Biacore), antibody captured on antigen peptide chip, FcγR as analyte; relative binding.
On to B1, for which the He/Con_2aR was 106 % of GpH7-A5/GpH7-B3/GpL16-k0 (=100).
On the same count and under the same terms, for B2 the value was 102 % of GpH7-A5/GpH7-B3/GpL16-k0 (=100); for B3, 104 % of GpH7-A5/GpH7-B3/GpL16-k0 (=100).

A further assay concerns the target T2, FcγRIIIa extracellular domain with C-terminal His tag (human, UniProt P08637 17-208).
T2 construct: extracellular domain; also called FcgRIIIa; 3a; not shown: His tag attached to the C terminus
Put plainly: SPR Biacore, captured antibody, FcγR analyte, relative binding. How it is done:
Analysis of interaction between objective antibody and the FcγR was carried out using Biacore T100 (GE Healthcare). HBS-EP+ (GE Healthcare) was used as the running buffer, and the measurement temperature was set to 25° C. Chips produced by immobilizing the antigen peptide by the amine coupling method to a Series S Sencor Chip CM5 (GE Healthcare), or alternatively, chips produced by allowing preliminarily biotinylated antigen peptides to interact with and immobilize onto a Series S Sensor Chip SA (certified) (GE Healthcare) were used. Antibodies of interest were captured onto an antigen peptide-immobilized chip, and allowed to interact to each FcγR diluted with running buffer. To regenerate and repeatedly use the chip, the antibodies captured on the chip were washed off by reacting 10 mM glycine-HCl, pH 1.5.
Consider B4, for which the Ho/Con_3a was 104 % of HoCon Ab GpH7-B3/GpL16-k0 (=100).
Still for that read-out and setting: then B5, with 278 % of HoCon Ab GpH7-B3/GpL16-k0 (=100).
In the case of B6, the Ho/Con_3a was 138 % of HoCon Ab GpH7-B3/GpL16-k0 (=100).
The same measure, in the same setting: for B7 the value was 110 % of HoCon Ab GpH7-B3/GpL16-k0 (=100).
Same read-out and setting: for B8 the value was 111 % of HoCon Ab GpH7-B3/GpL16-k0 (=100); for B9, 107 % of HoCon Ab GpH7-B3/GpL16-k0 (=100); for B10, 104 % of HoCon Ab GpH7-B3/GpL16-k0 (=100).
On the same count and under the same terms, for B11 the value was 104 % of HoCon Ab GpH7-B3/GpL16-k0 (=100); for B12, 111 % of HoCon Ab GpH7-B3/GpL16-k0 (=100).
Consider B13, for which the Ho/Con_3a is 118 % of HoCon Ab GpH7-B3/GpL16-k0 (=100).
On the same count and under the same terms, then B14, with 174 % of HoCon Ab GpH7-B3/GpL16-k0 (=100); and B15, with 119 % of HoCon Ab GpH7-B3/GpL16-k0 (=100).
On the same count and under the same terms, then B16, with 114 % of HoCon Ab GpH7-B3/GpL16-k0 (=100); and B17, with 255 % of HoCon Ab GpH7-B3/GpL16-k0 (=100); and B18, with 138 % of HoCon Ab GpH7-B3/GpL16-k0 (=100).
On the same count and under the same terms, for B19 the value was 106 % of HoCon Ab GpH7-B3/GpL16-k0 (=100); for B20, 118 % of HoCon Ab GpH7-B3/GpL16-k0 (=100).
For the molecule B21, the Ho/Con_3a was 130 % of HoCon Ab GpH7-B3/GpL16-k0 (=100).
Same read-out and setting: for B22 the value was 130 % of HoCon Ab GpH7-B3/GpL16-k0 (=100).
Regarding B23, the Ho/Con_3a was 206 % of HoCon Ab GpH7-B3/GpL16-k0 (=100).
The same measure, in the same setting: then B24, with 220 % of HoCon Ab GpH7-B3/GpL16-k0 (=100).
Turning to B25, the Ho/Con_3a was 112 % of HoCon Ab GpH7-B3/GpL16-k0 (=100).
